Target: Rab3
Assay: cell-based or functional assay

“wild-type Noc2 expressed from adenovirus Ad-Noc2 wt in pancreatic islets of Noc2-/- mice (from UniProt Q768S4 1-302)” gave a Ca2+-triggered insulin secretion in cultured pancreatic islets of Noc2-/- mice (ng/islet/30 min) of 1.2.
